In patent publication US20100061978A1 (UNIVERSITY OF BRITISH COLUMBIA, published 2010):

Target: T1, c-kit, endogenous in FDC-P1 cells (mouse, UniProt P05532 25-979)
T1 construct: whole, on cells
Experiment: co-immunoprecipitation with anti-CXCR4 from FDC-P1 whole cell lysates

T1 sequence (P05532 25-979): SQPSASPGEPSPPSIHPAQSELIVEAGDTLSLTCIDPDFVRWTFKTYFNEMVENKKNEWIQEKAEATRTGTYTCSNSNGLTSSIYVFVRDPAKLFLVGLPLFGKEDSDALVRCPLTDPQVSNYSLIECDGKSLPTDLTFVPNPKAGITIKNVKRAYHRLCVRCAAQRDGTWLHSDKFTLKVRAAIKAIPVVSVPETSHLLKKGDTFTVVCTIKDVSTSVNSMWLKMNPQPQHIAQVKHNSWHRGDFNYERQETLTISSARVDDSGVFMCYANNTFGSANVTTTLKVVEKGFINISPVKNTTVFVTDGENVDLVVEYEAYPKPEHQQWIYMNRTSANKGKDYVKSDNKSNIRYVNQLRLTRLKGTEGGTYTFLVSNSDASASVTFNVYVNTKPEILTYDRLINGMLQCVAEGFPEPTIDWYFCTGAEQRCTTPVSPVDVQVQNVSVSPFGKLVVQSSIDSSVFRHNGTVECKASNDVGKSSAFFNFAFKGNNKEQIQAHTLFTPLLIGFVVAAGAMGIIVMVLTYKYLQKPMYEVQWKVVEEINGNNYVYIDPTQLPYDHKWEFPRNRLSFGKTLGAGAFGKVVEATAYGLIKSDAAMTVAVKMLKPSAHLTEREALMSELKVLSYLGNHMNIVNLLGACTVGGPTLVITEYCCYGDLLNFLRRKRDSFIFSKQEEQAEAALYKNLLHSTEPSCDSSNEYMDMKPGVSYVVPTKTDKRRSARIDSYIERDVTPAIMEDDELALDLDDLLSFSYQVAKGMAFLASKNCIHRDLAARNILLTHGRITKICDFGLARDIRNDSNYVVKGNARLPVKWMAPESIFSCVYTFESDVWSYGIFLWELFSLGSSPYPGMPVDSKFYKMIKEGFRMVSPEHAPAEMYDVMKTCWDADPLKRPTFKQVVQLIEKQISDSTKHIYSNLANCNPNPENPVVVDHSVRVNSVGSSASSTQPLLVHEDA

binding result: no binding
B1: CXCR4, endogenous in FDC-P1 cells (receptor, mouse, UniProt P70658 1-359, looked up)
chain: MEPISVSIYTSDNYSEEVGSGDYDSNKEPCFRDENVHFNRIFLPTIYFIIFLTGIVGNGLVILVMGYQKKLRSMTDKYRLHLSVADLLFVITLPFWAVDAMADWYFGKFLCKAVHIIYTVNLYSSVLILAFISLDRYLAIVHATNSQRPRKLLAEKAVYVGVWIPALLLTIPDFIFADVSQGDISQGDDRYICDRLYPDSLWMVVFQFQHIMVGLILPGIVILSCYCIIISKLSHSKGHQKRKALKTTVILILAFFACWLPYYVGISIDSFILLGVIKQGCDFESIVHKWISITEALAFFHCCLNPILYAFLGAKFKSSAQHALNSMSRGSSLKILSKGKRGGHSSVSTESESSSFHSS
notes: whole, on cells; Immunoprecipitated with anti-CXCR4 from whole cell lysates in the co-immunoprecipitation
